From US20250011456A1, “ANTIBODIES AGAINST CD14 AND USES THEREOF” (Villanelle Life Science Inc, priority 2023, published 2025)
Substitutions are numbered along the chain they refer to.

T1: recombinant human CD14 (B294801, histidine tagged) (Homo sapiens, UniProt P08571)
T1 construct: His; purchased Shanghai BaiYing Biotechnology Co., Ltd B294801 (Batch number 20200518A22)
T1 sequence (P08571 20-345): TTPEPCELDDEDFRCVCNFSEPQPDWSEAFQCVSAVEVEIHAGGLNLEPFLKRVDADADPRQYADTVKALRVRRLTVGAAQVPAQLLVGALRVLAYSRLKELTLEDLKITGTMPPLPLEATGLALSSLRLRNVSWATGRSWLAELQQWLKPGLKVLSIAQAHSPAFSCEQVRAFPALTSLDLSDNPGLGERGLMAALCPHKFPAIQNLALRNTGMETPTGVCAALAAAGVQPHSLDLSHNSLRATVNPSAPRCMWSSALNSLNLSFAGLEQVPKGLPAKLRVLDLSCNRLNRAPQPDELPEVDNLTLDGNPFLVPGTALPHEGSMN

B1: D6DD3D008: humanized anti-CD14 antibody; VH SEQ ID NO: 29, VL SEQ ID NO: 31 (antibody, V domains shown)
VH: QVQLQESGPGLVKPSETLSLTCTVSGGSISSDSAWNWIRQPPGKGLEWIGYISYSGSTSYNPSLKSRVTISRDTSKNQFSLKLSSVTAADTAVYYCVRGLRFAYWGQGTLVTVSS
VL: DIVLTQSPDSLAVSLGERATINCRASESVDSYVNSFLHWYQQKPGQPPKLLIYRASNLQSGVPDRFSGSGSRTDFTLTISSLQAEDVAVYYCQQSNEDPYTFGQGTKLEIK
B2: D6DD3D012: humanized anti-CD14 antibody; VH SEQ ID NO: 45, VL SEQ ID NO: 47 (antibody, V domains shown)
VH: B1 VH with E16Q, P41H
VL: DIQLTQSPSSLSASVGDRVTITCRASESVDSYVNSFLHWYQQKPGKAPKLLIYRASNLQSGVPSRFSGSGSRTDFTLTISSLQPEDVATYYCQQSNEDPYTFGQGTKLEIK
B3: D6DD3D011: humanized anti-CD14 antibody; VH SEQ ID NO: 41, VL SEQ ID NO: 43 (antibody, V domains shown)
VH: B1 VH with E16Q, G27Y, S30T
VL: B1 VL
B4: D6DD3D014: humanized anti-CD14 antibody; VH SEQ ID NO: 53, VL SEQ ID NO: 55 (antibody, V domains shown)
VH: B1 VH with V2L
VL: B2 VL
B5: D6DD3D002: humanized anti-CD14 antibody; VH SEQ ID NO: 5, VL SEQ ID NO: 7 (antibody, V domains shown)
VH: B1 VH with E16Q, P41H
VL: EIVLTQSPATLSLSPGERATLSCRASESVDSYVNSFLHWYQQKPGQAPRLLIYRASNLQSGIPARFSGSGSRTDFTLTISSLEPEDVAVYYCQQSNEDPYTFGQGTKLEIK
B6: D6DD3D003: humanized anti-CD14 antibody; VH SEQ ID NO: 9, VL SEQ ID NO: 11 (antibody, V domains shown)
VH: B1 VH
VL: B5 VL
B7: D6DD3D004: humanized anti-CD14 antibody; VH SEQ ID NO: 13, VL SEQ ID NO: 15 (antibody, V domains shown)
VH: B1 VH with V2L
VL: B5 VL
B8: D6DD3D016: humanized anti-CD14 antibody; VH SEQ ID NO: 61, VL SEQ ID NO: 63 (antibody, V domains shown)
VH: B1 VH with E16Q, G27Y, S30T
VL: B2 VL
B9: D6DD3D009: humanized anti-CD14 antibody; VH SEQ ID NO: 33, VL SEQ ID NO: 35 (antibody, V domains shown)
VH: B1 VH with V2L
VL: B1 VL
B10: D6DD3D013: humanized anti-CD14 antibody; VH SEQ ID NO: 49, VL SEQ ID NO: 51 (antibody, V domains shown)
VH: B1 VH
VL: B2 VL

Molecular target: T1, recombinant human CD14 (B294801, histidine tagged)
Assay: Biacore 8K kinetic and affinity test of humanized antibodies (Example 8)
Format: binding
Settings: for Kd / koff (1:1 binding) / kon (1:1 binding): Biacore 8K, analyte B294801 0.78125-25 nM, capture 1 μg/mL; for Kd: KD=koff/kon; for Change Factor (ratio of KD of the humanized to mouse antibody): relative to mouse antibody D6DD3D001
Protocol: Experimental reagents and consumables included Protein A chip (Cytiva, 29127556). Main instruments and equipment included Biacore 8K (Cytiva), shaker (Taicang Huamei), ELISA system (Molecular Devices), centrifuge (Baiyang), ultrapure water system (Millipore), and thermostatic incubator (BLUE PARD).
The antigen used for the binding affinity measurements is B294801. This antigen is a recombinant human CD14 antigen that is histidine tagged and has a molecular weight of 36 kDa. B294801 was purchased from Shanghai BaiYing Biotechnology Co., Ltd (name: Recombinant Human CD14/His Protein; Batch number 20200518A22). D6DD3D001 is a mouse antibody, and D6DD3D002-D6DD3D0016 are humanized antibodies. The antibodies are recombinant, human (hFc Tag). Selected parameters of the experimental samples are shown in Table 8-1, with MW referring to molecular weight in kiloDaltons (kDa).
The Biacore 8K platform was used to test the kinetic and affinity properties of the antibody. The operation was carried out according to the system instructions and indications.
The equilibrium dissociation constant (KD) reflects the affinity of the antibody to the target, with a smaller value indicating a stronger affinity. KD (in units of molarity) is determined by the ratio of the dissociation rate constant (koff) and the association rate constant (kon), that is, KD=Koff/kon.
15 humanized antibodies (numbered D6DD3D002-D6DD3D0016) and 1 mouse antibody (number D6DD3D001) were tested. For the experiments, the analyte solution comprises the B294801 antigen with an analyte concentration of 0.78125 nM, 1.5625 nM, 3.125 nM, 6.25 nM, 12.5 nM, and 25 nM. The capture concentration was 1 μg/mL. In Table 8-3, the change factor is the ratio of the equilibrium dissociation constant KD of the humanized to mouse antibody, and reflects the change in affinity after humanization.

Row | Kd | koff (1:1 binding) | kon (1:1 binding) | Change Factor (ratio of KD of the humanized to mouse antibody) | Molecule
1 | 1.57 nM | 0.00329 s⁻¹ | 2.09e+06 M⁻¹ s⁻¹ | 3.24 | B1
2 | – | 0.00293 s⁻¹ | 1.64e+06 M⁻¹ s⁻¹ | – | B2
3 | 0.639 nM | 0.00109 s⁻¹ | 1.71e+06 M⁻¹ s⁻¹ | 1.32 | B3
4 | 1.8 nM | 0.00318 s⁻¹ | 1.77e+06 M⁻¹ s⁻¹ | 3.71 | B4
5 | – | 0.00292 s⁻¹ | 1.69e+06 M⁻¹ s⁻¹ | – | B5
6 | 1.62 nM | 0.00295 s⁻¹ | 1.82e+06 M⁻¹ s⁻¹ | 3.34 | B6
7 | 1.99 nM | 0.00326 s⁻¹ | 1.64e+06 M⁻¹ s⁻¹ | 4.10 | B7
8 | 0.672 nM | 0.000904 s⁻¹ | 1.35e+06 M⁻¹ s⁻¹ | 1.39 | B8
9 | 1.89 nM | 0.00379 s⁻¹ | 2.01e+06 M⁻¹ s⁻¹ | 3.90 | B9
10 | 1.61 nM | 0.00282 s⁻¹ | 1.76e+06 M⁻¹ s⁻¹ | 3.32 | B10
